Columns and labels:
[1] = molecular target: trastuzumab; experiment: cell-based or functional assay
[2] = molecular target: trastuzumab; experiment: method not stated; affinity listed for the purchased ADA
[3] = molecular target: trastuzumab; experiment: ELISA Kit A (anti-idiotype capture) of trastuzumab 50 ug/mL pre-bound with ADA; trastuzumab:ADA 1:1
[4] = molecular target: trastuzumab; experiment: ELISA Kit A (anti-idiotype capture) of trastuzumab 50 ug/mL pre-bound with ADA; trastuzumab:ADA 5:1
[5] = molecular target: trastuzumab; experiment: ELISA Kit A (anti-idiotype capture) of trastuzumab 0.5 ug/mL pre-bound with ADA; trastuzumab:ADA 1:1
[6] = molecular target: trastuzumab; experiment: ELISA Kit A (anti-idiotype capture) of trastuzumab 0.5 ug/mL pre-bound with ADA; trastuzumab:ADA 1:2
[7] = molecular target: trastuzumab; experiment: ELISA Kit A (anti-idiotype capture) of trastuzumab 0.5 ug/mL pre-bound with ADA; trastuzumab:ADA 1:5
[8] = molecular target: trastuzumab; experiment: ELISA Kit A (anti-idiotype capture) of trastuzumab 0.5 ug/mL pre-bound with ADA; trastuzumab:ADA 5:1
[9] = molecular target: trastuzumab; experiment: ELISA Kit A (anti-idiotype capture) of trastuzumab 50 ug/mL pre-bound with ADA; trastuzumab:ADA 10:1
[10] = molecular target: trastuzumab; experiment: ELISA Kit A (anti-idiotype capture) of trastuzumab 0.5 ug/mL pre-bound with ADA; trastuzumab:ADA 10:1
[11] = molecular target: trastuzumab; experiment: ELISA Kit A (anti-idiotype capture) of trastuzumab 0.5 ug/mL pre-bound with ADA; trastuzumab:ADA 1:10
[12] = molecular target: trastuzumab; experiment: ELISA Kit A (anti-idiotype capture) of trastuzumab 0.5 ug/mL pre-bound with ADA; trastuzumab:ADA 1:50
[13] = molecular target: trastuzumab; experiment: ELISA Kit A (anti-idiotype capture) of trastuzumab 50 ug/mL pre-bound with ADA; trastuzumab:ADA 100:1
[14] = molecular target: trastuzumab; experiment: ELISA Kit A (anti-idiotype capture) of trastuzumab 0.5 ug/mL pre-bound with ADA; trastuzumab:ADA 1:100
[15] = molecular target: trastuzumab; experiment: ELISA Kit B (HER2 capture, anti-human IgG Fc detection) of trastuzumab 0.5 ug/mL pre-bound with ADA; trastuzumab:ADA 1:1
[16] = molecular target: trastuzumab; experiment: ELISA Kit B (HER2 capture, anti-human IgG Fc detection) of trastuzumab 0.5 ug/mL pre-bound with ADA; trastuzumab:ADA 10:1
[17] = molecular target: trastuzumab; experiment: ELISA Kit B (HER2 capture, anti-human IgG Fc detection) of trastuzumab 0.5 ug/mL pre-bound with ADA; trastuzumab:ADA 1:10
[18] = molecular target: trastuzumab; experiment: ELISA Kit B (HER2 capture, anti-human IgG Fc detection) of trastuzumab 0.5 ug/mL pre-bound with ADA; trastuzumab:ADA 1:100

Substance	Accuracy (%) nSMOL; trastuzumab 0.5 ug/mL; trastuzumab:ADA 1:1 [1]	Accuracy (%) nSMOL; trastuzumab 0.5 ug/mL; trastuzumab:ADA 1:2 [1]	Accuracy (%) nSMOL; trastuzumab 0.5 ug/mL; trastuzumab:ADA 1:5 [1]	Accuracy (%) nSMOL; trastuzumab 0.5 ug/mL; trastuzumab:ADA 1:10 [1]	Accuracy (%) nSMOL; trastuzumab 0.5 ug/mL; trastuzumab:ADA 1:50 [1]	Accuracy (%) nSMOL; trastuzumab 0.5 ug/mL; trastuzumab:ADA 1:100 [1]	Accuracy (%) nSMOL; trastuzumab 0.5 ug/mL; trastuzumab:ADA 5:1 [1]	Accuracy (%) nSMOL; trastuzumab 0.5 ug/mL; trastuzumab:ADA 10:1 [1]	Accuracy (%) nSMOL; trastuzumab 50 ug/mL; trastuzumab:ADA 1:1 [1]	Accuracy (%) nSMOL; trastuzumab 50 ug/mL; trastuzumab:ADA 5:1 [1]	Accuracy (%) nSMOL; trastuzumab 50 ug/mL; trastuzumab:ADA 10:1 [1]	Accuracy (%) nSMOL; trastuzumab 50 ug/mL; trastuzumab:ADA 100:1 [1]	Accuracy (%) nSMOL; trastuzumab first immobilized on Protein A; trastuzumab:ADA 1:1 [1]	Accuracy (%) nSMOL; trastuzumab first immobilized on Protein A; trastuzumab:ADA 5:1 [1]	Accuracy (%) nSMOL; trastuzumab first immobilized on Protein A; trastuzumab:ADA 10:1 [1]	Accuracy (%) nSMOL; trastuzumab first immobilized on Protein A; trastuzumab:ADA 100:1 [1]	Kd [2]	Accuracy (%) ELISA [3]	Accuracy (%) ELISA [4]	Accuracy (%) ELISA [5]	other results
HCA168 (Fab)	106%	102%	93%	107%	86%	84.8%	113%	109%	92.9%	92.8%	102%	89.5%	94.5%	94.3%	101%	107%	20 pM	81.4%	66.8%	84.1%	Accuracy (%) ELISA [6]: 82.1%; Accuracy (%) ELISA [7]: 67.7%; Accuracy (%) ELISA [8]: 102%; Accuracy (%) ELISA [9]: 84.4%; Accuracy (%) ELISA [10]: 95.2%; Accuracy (%) ELISA [11]: 62.2%; Accuracy (%) ELISA [12]: 64.5%; Accuracy (%) ELISA [13]: 84.9%; Accuracy (%) ELISA [14]: 72.2%; Accuracy (%) Kit B [15]: 42.4%; Accuracy (%) Kit B [16]: 95.5%; Accuracy (%) Kit B [17]: 6.4%; Accuracy (%) Kit B [18]: 3.32%
HCA176 (antibody)	99.9%	93.4%	101%	89.1%	86.6%	88.7%	93.3%	106%	94.8%	96.7%	104%	94.7%	102%	98.3%	102%	93.5%	400 pM	57.3%	72.1%	78.7%	Accuracy (%) ELISA [6]: 75.2%; Accuracy (%) ELISA [7]: 75.4%; Accuracy (%) ELISA [8]: 98%; Accuracy (%) ELISA [9]: 69.6%; Accuracy (%) ELISA [10]: 116%; Accuracy (%) ELISA [11]: 76.6%; Accuracy (%) ELISA [12]: 73.1%; Accuracy (%) ELISA [13]: 84.6%; Accuracy (%) ELISA [14]: 82.6%; Accuracy (%) Kit B [15]: 36.1%; Accuracy (%) Kit B [16]: 101%; Accuracy (%) Kit B [17]: 3.93%; Accuracy (%) Kit B [18]: 11.7%

Reference: US20200173960A1
